# Data taken from PMC6108569.
# Target: OphAΔC18
# Assay: crystal structure; proteins from the dimer fractions of gel filtration chromatography, incubated with SAM, SAH or sinefungin before crystallization; hanging drop vapor diffusion unless otherwise specified; homodimer in the crystal
substance,measurement,value
OphAΔC18 (enzyme),stoichiometry N,2
